Source: US20200010567A1 (NEURIMMUNE, published 2020)

Experiments:
PR20: H-(PR)20HHHHHH-NH2 = molecular target: T1, PR20: H-(PR)20HHHHHH-NH2 (C-terminal amide); experiment: indirect ELISA, coated His-tagged peptide
T1 peptide: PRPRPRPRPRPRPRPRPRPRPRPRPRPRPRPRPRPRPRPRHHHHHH
Procedure, shortened: (§1)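 His-tagged dipeptide-repeat peptides coated at 50 μg/ml in carbonate buffer pH 9.42; blocked with 2% BSA in PBS/0.1% Tween-20. Human antibodies titrated, 1 h at room temperature, detected with HRP anti-human IgG Fcγ by colorimetric read-out. EC₅₀ from non-linear regression.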

PA20: H-(PA)20HHHHHH-NH2 = molecular target: T2, PA20: H-(PA)20HHHHHH-NH2 (C-terminal amide); experiment: indirect ELISA, coated His-tagged peptide
T2 peptide: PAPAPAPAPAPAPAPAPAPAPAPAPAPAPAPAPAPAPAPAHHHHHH
Procedure, shortened: as §1

PA10: H-(PA)10HHHHHH-NH2 = molecular target: T3, PA10: H-(PA)10HHHHHH-NH2 (C-terminal amide); experiment: indirect ELISA, coated His-tagged peptide
T3 peptide: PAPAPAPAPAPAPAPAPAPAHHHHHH
Procedure, shortened: as §1

PA6: H-(PA)6HHHHHH-NH2 = molecular target: T4, PA6: H-(PA)6HHHHHH-NH2; experiment: indirect ELISA, coated His-tagged peptide
T4 peptide: H-PAPAPAPAPAPAHHHHHH-NH2
Procedure, shortened: as §1

PA5: H-(PA)5HHHHHH-NH2 = molecular target: T5, PA5: H-(PA)5HHHHHH-NH2; experiment: indirect ELISA, coated His-tagged peptide
T5 peptide: H-PAPAPAPAPAHHHHHH-NH2
Procedure, shortened: as §1

GR20: H-(GR)20HHHHHH-NH2 = molecular target: T6, GR20: H-(GR)20HHHHHH-NH2 (C-terminal amide); experiment: indirect ELISA, coated His-tagged peptide
T6 peptide: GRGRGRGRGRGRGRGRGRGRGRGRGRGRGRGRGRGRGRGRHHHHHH
Procedure, shortened: as §1

GR6: H-(GR)6HHHHHH-NH2 = molecular target: T7, GR6: H-(GR)6HHHHHH-NH2; experiment: indirect ELISA, coated His-tagged peptide
T7 peptide: H-GRGRGRGRGRGRHHHHHH-NH2
Procedure, shortened: as §1

GR5: H-(GR)5HHHHHH-NH2 = molecular target: T8, GR5: H-(GR)5HHHHHH-NH2; experiment: indirect ELISA, coated His-tagged peptide
T8 peptide: H-GRGRGRGRGRHHHHHH-NH2
Procedure, shortened: as §1

GR4: H-(GR)4HHHHHH-NH2 = molecular target: T9, GR4: H-(GR)4HHHHHH-NH2; experiment: indirect ELISA, coated His-tagged peptide
T9 peptide: H-GRGRGRGRHHHHHH-NH2
Procedure, shortened: as §1

GR3: H-(GR)3HHHHHH-NH2 = molecular target: T10, GR3: H-(GR)3HHHHHH-NH2; experiment: indirect ELISA, coated His-tagged peptide
T10 peptide: H-GRGRGRHHHHHH-NH2
Procedure, shortened: as §1

GP10: H-(GP)10HHHHHH-NH2 = molecular target: T11, GP10: H-(GP)10HHHHHH-NH2 (C-terminal amide); experiment: indirect ELISA, coated His-tagged peptide
T11 peptide: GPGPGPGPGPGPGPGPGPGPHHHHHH
Procedure, shortened: as §1

GP4: H-(GP)4HHHHHH-NH2 = molecular target: T12, GP4: H-(GP)4HHHHHH-NH2; experiment: indirect ELISA, His-tagged peptide coated at 50 ug/ml, antibody titrated [also D00026 FIG. 7J]
T12 peptide: H-GPGPGPGPHHHHHH-NH2
From the text: (§2) In brief, dipeptide repeat proteins were synthesized and purified by Schafer-N (Copenhagen, Denmark): GA₂₀: H-(GA)₂₀HHHHHH-NH₂; GA₁₀: H-(GA)₁₀HHHHHH-NH₂; GA₆: H-(GA)₆HHHHHH-NH₂; GA₅: H-(GA)₅HHHHHH-NH₂; GA₄: H-(GA)₄HHHHHH-NH₂; GA₃: H-(GA)₃HHHHHH-NH₂; GA₂: H-(GA)₂HHHHHH-NH₂; GP₂₀: H-(GP)₂₀HHHHHH-NH₂; GP₁₀: H-(GP)₁₀HHHHHH-NH₂; GP₆: H-(GP)₆HHHHHH-NH₂; GP₅: H-(GP)₅HHHHHH-NH₂; GP₄: H-(GP)₄HHHHHH-NH₂; GP₃: H-(GP)₃HHHHHH-NH₂; GP₂: H-(GP)₂HHHHHH-NH₂. GR₂₀: H-(GR)₂₀HHHHHH-NH₂; GR₁₀: H-(GR)₁₀HHHHHH-NH₂; GR₆: H-(GR)₆HHHHHH-NH₂; GR₅: H-(GR)₅HHHHHH-NH₂; GR₄: H-(GR)₄HHHHHH-NH₂; GR₃: H-(GR)₃HHHHHH-NH₂; GR₂: H-(GR)₂HHHHHH-NH₂; PA₂₀: H-(PA)₂₀HHHHHH-NH₂; PA₁₀: H-(PA)₁₀HHHHHH-NH₂; PA₆: H-(PA)₆HHHHHH-NH₂; PA₅: H-(PA)₅HHHHHH-NH₂; PA₄: H-(PA)₄HHHHHH-NH₂; PA₃: H-(PA)₃HHHHHH-NH₂; PA₂: H-(PA)₂HHHHHH-NH₂; PR₂₀: H-(PR)₂₀HHHHHH-NH₂; PR₁₀: H-(PR)₁₀HHHHHH-NH₂; PR₆: H-(PR)₆HHHHHH-NH₂; PR₅: H-(PR)₅HHHHHH-NH₂; PR₄: H-(PR)₄HHHHHH-NH₂; PR₃: H-(PR)₃HHHHHH-NH₂; PR₂: H-(PR)₂HHHHHH-NH₂. 96-well microplates (Corning Incorporated, Corning, USA) were coated with dipeptide repeat protein peptides at a concentration of 50 μg/ml in coating buffer (15 mM Na₂CO₃, 35 mM NaHCO₃, pH 9.42). Non-specific binding sites were blocked for 1 h at room temperature with PBS/0.1% Tween®-20 containing 2% BSA (Sigma-Aldrich, Buchs, Switzerland). Primary antibodies were diluted to the indicated concentrations and incubated 1 h at room temperature, followed by incubation with a donkey anti-human IgG Fcγ-specific antibody conjugated with HRP (Jackson ImmunoResearch Laboratories, Inc., West Grove, USA). Binding was determined by measurement of HRP activity in a standard colorimetric assay. EC₅₀ values were estimated by non-linear regression using GraphPad Prism software (San Diego, USA).

GP3: H-(GP)3HHHHHH-NH2 = molecular target: T13, GP3: H-(GP)3HHHHHH-NH2; experiment: as above
T13 peptide: H-GPGPGPHHHHHH-NH2
From the text: as §2

GP2: H-(GP)2HHHHHH-NH2 = molecular target: T14, GP2: H-(GP)2HHHHHH-NH2; experiment: as above
T14 peptide: H-GPGPHHHHHH-NH2
From the text: as §2

B1: NI-308.24E11 (antibody, V domains shown)
VH: QVQLQESGPGLVKPSETLSLTCTVSTTSLRSYFWSWIRQPPGKGLEWIGYVYYSGSTIYNPSLKNRVTISIDTSKNQFSLNLRSVTAADTAMYFCARGVPAETDARDFPPYYFDHWGQGTLVTVSS
VL: CDIQLTQSPSSLSASVGNRITFTCQASQDIRYYLNWYQQKPGKAPKLLIYDVSNLDTGVPPRFSGSGSGTNFTFTISSLQPEDIAVYYCQQYEGLPVTFGGGTKVEIK
notes: Recombinant complete human IgG1, kappa
B1 was tested. Which EC50 (PR20: H-(PR)20HHHHHH-NH2) did it give?
The EC50 was 11.3 nM.

B2: NI-308.4M1 (antibody, V domains shown)
VH: EVQLVETGGGVVQPGGSLRLSCEASGFTIGTYAMHWVRQFPGKGLDWVAVISFDGTTEYYTDAVKGRFTISRDNAKNTLYLQMNYLRGDDTAIYFCARDFTSSGETGSWTQVPDLWGQGTLVTVSS
VL: CEIVMTQSPATLSLSPGERATLSCRASQSVTKYLAWYQQKPGQAPRLLIYDVSYRAAGTPARFSGSGSGTDFTLTISSLEPEDFAVYYCHQRSSWPPVTFGGGTKVEIK
notes: as for B1
Which results are given for B2?
EC50 (PA20: H-(PA)20HHHHHH-NH2): 0.06 nM; EC50 (PA10: H-(PA)10HHHHHH-NH2): 0.06 nM; EC50 (PA6: H-(PA)6HHHHHH-NH2): 4.3 nM; EC50 (PA5: H-(PA)5HHHHHH-NH2): 26.9 nM

B3: NI-308.6B11 (antibody, V domains shown)
VH: EVQLVQSGAEVKRPGASVKVSCKVSGYTLTELSMHWVRQAPGKGLEWMGGFDPEDGETVYAQKFQGRVTMTEDTSTDTAYMELSSLRSEDTALYHCATYGSSWHWNEGNEGSYYFDYWGQGTLVTVSS
VL: CDIQMTQSPSSLSASVGDRVTITCQASQDISIYLNWYQQKPGKAPKLLIYDASNLETGVPSRFSGSGSGTDFTFTISGLQPEDVARYYCQQYDDLPITFGQGTRLEIK
notes: as for B1
How did the EC50 (GR20: H-(GR)20HHHHHH-NH2) turn out when B3 was run?
The EC50 was 0.25 nM.

What about the EC50 (GR6: H-(GR)6HHHHHH-NH2) of the same binder?
Its EC50 is 0.33 nM.

And the EC50 (GR5: H-(GR)5HHHHHH-NH2)?
The EC50 was 0.47 nM.

What about the EC50 (GR4: H-(GR)4HHHHHH-NH2) of the same binder?
Its EC50 is 13.2 nM.

What about the EC50 (GR3: H-(GR)3HHHHHH-NH2) of the same binder?
The EC50 was 14.3 nM.

B4: NI-308.46E9 (antibody, V domains shown)
VH: QVQLQESGPGLVKPSETLSLTCTVSGASISGSTYYWGWIRQPPGKGLEYIGRIYYSGSTYYNPSLKSRATISVDTSKNQLSLTLSSVTAADTAVYYCVRPFYAGSGNSPFDYWGQGTLVTVSS
VL: CEIVLTQSPATVSVSPGERATLSCRASQSVSTNLAWYQQKPGQPPRLLIYGASTRATGIPARFSGSGSGAEFTLTISSLQSEDFVVYYCQQYNNWPPAFGGGTKVEIK
notes: as for B1
With B4 as the binder, how does the EC50 (GP10: H-(GP)10HHHHHH-NH2) read?
Its EC50 is 63.3 nM.

B5: NI-308.5G2 (antibody, V domains shown)
VH: EVQLVQSGADLRNPGASVTVSCTASGYHFADNAINWLRQAPGQRLEWMGWINIYSGNTKYSQNFQGRVTFTRNTSASTAFMHLRSLRSEDTAVYFCARDPDSSGYYLPYFDYWGQGTLVTVSS
VL: DIQLTQSPDSLTLSLGERATINCKSSQSVFYNSNNKNYLAWYQQKPGQPPKLLMYWASTRESGVTDRFSGSGSGTDFTLTITNLQAEDVAVYYCQQFYSSPLTFGGGTKVEIK
notes: as for B1
Which results are given for B5?
binding result (GP4: H-(GP)4HHHHHH-NH2): no binding (tested: about 4x10^5 pM (last point)); binding result (GP3: H-(GP)3HHHHHH-NH2): no binding (tested: about 4x10^5 pM (last point)); binding result (GP2: H-(GP)2HHHHHH-NH2): no binding (tested: about 4x10^5 pM (last point))
